Target: Grb2 SH2 domain (BAP-tagged) (UniProt P62993 60-152, biotin on the BAP tag (in vivo biotinylation))
Assay: FP

Chain of Grb2 SH2 domain (BAP-tagged) (P62993 60-152): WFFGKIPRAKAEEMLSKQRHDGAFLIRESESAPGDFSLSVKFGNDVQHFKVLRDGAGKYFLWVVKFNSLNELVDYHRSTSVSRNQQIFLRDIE

B1: Affimer Grb2 A4 (designed binder)
chain: MASNSLEIEELARFAVDEHNKKENALLEFVRVVKAKEQHVLWENAGPTMYYLTLEAKDGGKKKLYEAKVWVKHTRYEYFVYNFKELQEFKPVGDAAAAHHHHHHHH
  IC50: 0.77 µM
